To fix the notation:
T1: mouse CNTN4-rabbit Fc (mouse; rabbit, UniProt Q69Z26 19-1000, limits assumed)
T1 construct: not shown: rabbit Fc
T1 sequence (looked up): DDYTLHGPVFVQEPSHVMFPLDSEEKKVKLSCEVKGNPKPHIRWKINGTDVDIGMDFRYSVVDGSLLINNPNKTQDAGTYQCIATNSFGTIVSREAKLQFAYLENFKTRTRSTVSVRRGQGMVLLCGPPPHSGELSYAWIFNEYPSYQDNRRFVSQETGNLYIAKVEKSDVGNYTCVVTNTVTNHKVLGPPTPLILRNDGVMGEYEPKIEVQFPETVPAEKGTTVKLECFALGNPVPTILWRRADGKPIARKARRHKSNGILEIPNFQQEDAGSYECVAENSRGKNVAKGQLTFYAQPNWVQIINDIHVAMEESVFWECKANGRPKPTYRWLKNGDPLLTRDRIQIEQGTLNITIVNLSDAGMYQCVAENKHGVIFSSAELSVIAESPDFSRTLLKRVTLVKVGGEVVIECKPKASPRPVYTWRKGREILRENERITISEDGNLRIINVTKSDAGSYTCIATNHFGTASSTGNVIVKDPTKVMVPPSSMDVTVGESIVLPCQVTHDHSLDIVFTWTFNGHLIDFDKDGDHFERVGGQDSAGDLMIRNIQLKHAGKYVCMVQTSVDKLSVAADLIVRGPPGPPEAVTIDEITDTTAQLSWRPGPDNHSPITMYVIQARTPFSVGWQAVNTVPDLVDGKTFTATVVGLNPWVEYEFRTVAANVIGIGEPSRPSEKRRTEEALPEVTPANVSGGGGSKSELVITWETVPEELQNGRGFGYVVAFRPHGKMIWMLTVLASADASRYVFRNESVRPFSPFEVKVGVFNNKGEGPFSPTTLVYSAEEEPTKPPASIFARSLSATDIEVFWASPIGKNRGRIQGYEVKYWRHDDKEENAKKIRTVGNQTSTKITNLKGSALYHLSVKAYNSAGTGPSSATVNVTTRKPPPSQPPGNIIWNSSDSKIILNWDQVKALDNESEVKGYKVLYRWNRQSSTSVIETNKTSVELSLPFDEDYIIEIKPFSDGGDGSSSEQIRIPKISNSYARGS

T2: human CNTN4-rabbit Fc (human; rabbit, UniProt Q8IWV2 19-1000, limits assumed)
T2 construct: not shown: rabbit Fc
T2 sequence (looked up): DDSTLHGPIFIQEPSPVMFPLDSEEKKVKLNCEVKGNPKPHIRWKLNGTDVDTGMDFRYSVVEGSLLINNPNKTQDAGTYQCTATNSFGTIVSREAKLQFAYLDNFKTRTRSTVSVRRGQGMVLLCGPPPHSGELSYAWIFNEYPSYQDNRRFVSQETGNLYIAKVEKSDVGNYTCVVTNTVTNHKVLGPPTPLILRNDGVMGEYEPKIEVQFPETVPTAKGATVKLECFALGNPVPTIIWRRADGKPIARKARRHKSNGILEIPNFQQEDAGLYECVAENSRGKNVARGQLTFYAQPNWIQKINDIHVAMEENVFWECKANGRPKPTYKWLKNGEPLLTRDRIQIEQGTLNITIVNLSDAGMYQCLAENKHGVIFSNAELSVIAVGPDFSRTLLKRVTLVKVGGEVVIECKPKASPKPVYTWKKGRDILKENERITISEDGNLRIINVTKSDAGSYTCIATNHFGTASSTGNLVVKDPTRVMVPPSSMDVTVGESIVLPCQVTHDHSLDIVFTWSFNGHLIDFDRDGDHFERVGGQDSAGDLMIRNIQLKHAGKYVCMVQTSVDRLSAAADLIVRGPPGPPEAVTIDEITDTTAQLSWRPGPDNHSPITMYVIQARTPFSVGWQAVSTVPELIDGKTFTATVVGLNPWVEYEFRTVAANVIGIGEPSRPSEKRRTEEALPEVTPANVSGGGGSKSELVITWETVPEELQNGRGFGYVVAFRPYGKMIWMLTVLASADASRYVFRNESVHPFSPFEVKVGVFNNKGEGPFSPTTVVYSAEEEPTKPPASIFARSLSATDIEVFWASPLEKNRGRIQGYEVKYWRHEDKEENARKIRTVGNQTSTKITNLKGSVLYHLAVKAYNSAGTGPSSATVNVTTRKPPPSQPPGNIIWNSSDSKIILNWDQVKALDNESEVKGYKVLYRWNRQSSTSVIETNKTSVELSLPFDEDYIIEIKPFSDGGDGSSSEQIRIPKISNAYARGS

T3: human CNTN4 antigen expressed on the cell membrane of 293FT cells (human) (UniProt Q8IWV2)
T3 sequence (looked up): T2 sequence (looked up)

T4: human CNTN4 antigen expressed on the cell membrane of 293FT cells (human, UniProt Q8IWV2 19-1000)
T4 construct: whole, on cells; also called Human CNTN4 transfected cell
T4 sequence (looked up): T2 sequence (looked up)

B1: anti-CNTN4 scFv-hCk S99 (scFv, part only; not given: linker and kappa constant region, V domains shown, not shown: another chain or arm of the molecule; a dimerising Fc or GST; small tags and cut ends)
VL: ALTQPSSVSANPGETVKITCSGGASYAGNYYYGWYQQKSPGSAPVTVIYNNNQRPSDIPSRFSGSLSGSTNTLTITGVQADDEAVYFCGSDDSSAGYTGIFGAGTTLTVL
VH: AVTLDESGGGLQTPGGALSLVCKASEFTFSGYGMHWVRQAPGKGLEFVAEISNTGSWTGYGAAVKGRATISRDNGQSTVRLQLNNLKADDTATYYCAKVGGRGWCGRSGCADDIDAWGHGTEVIVSS
B2: anti-CNTN4 scFv-hCk S4 (scFv, part only; not given: linker and kappa constant region, not shown: a dimerising Fc or GST)
scFv, part: ALTQPSSVSANPGESVKITCSGGGSSYYGWYQQKSPGSAPVTLIYQNTNRPSNIPSRFSGSGSGSTGTLTITGVRAEDEAVYYCGGYDGSTDVFGAGTTLTVLAVTLDESEGGLQTPGGALSLVCKASGFTFSSFNMFWVRQAPGKGLEYVAEISGGGGSTWYASAVKGRATISRDNGQSTVRLQLNNLRAEDTGTYYCAKSADTWSYGAATIDAWGHGTEVIVSS
B3: anti-CNTN4 scFv-hCk S1 (scFv, part only; not given: linker and kappa constant region, not shown: a dimerising Fc or GST)
scFv, part: ALTQPSSVSANPGETVKITCSGGSSYGWYQQKSPGSAPVTVIYDNTNRPSNIPSRFSGSKSGSTNTLTITGVRAEDEAVYFCGGYDSSIDAFGAGTTLTVLAVTLDESEGGLQTPGGALSLVCKASGFTFSSFNMFWVRQAPGKGLEYVAEISGGGGSTWYAPAVKGRATISRDNGQSTVRLQLNNLRAEDTGTYYCAKSADTWSYGAATIDAWGHGTEVIVSS
B4: anti-CNTN4 scFv-hCk S24 (scFv, part only; not given: linker and kappa constant region, not shown: a dimerising Fc or GST)
scFv, part: ALTQPSSVSANPGETVEITCSGGSGSYGWYQQKAPGSAPVTVIYDNTNRPSNIPSRFSGSGSDSTGTLTITGVQADDEAVYYCGSYDSIEVIFGAGTTLTVLAVTLDESGGGLHTPGGALSLVCKASGFTFSSYGMAWVRQAPGKGLEWVAGITSSGSSAGYGPAVKGRATISRDNGQSTVRLQLNNLRAEDTATYYCAKDGYIYSGGDSDSIDAWGHGTEVIVSS
B5: anti-CNTN4 scFv-hCk S46 (scFv, part only; not given: linker and kappa constant region, not shown: a dimerising Fc or GST)
scFv, part: B4 scFv, part with E78K, G208A
B6: anti-CNTN4 scFv-hCk S129 (scFv, part only; not given: linker and kappa constant region, not shown: a dimerising Fc or GST)
scFv, part: ALTQPSSVSANLGETVKITCSGSSGSYGWYQQKSPGSAPVTLIYDNTNRPSDIPSRFSGSGSGSTGTLTITGVRAEDEAVYYCGGYDGSTDVFGAGTTLTVLAVTLDESEGGLQTPGGALSLVCKASGFTFSSFNMFWVRQAPGKGLEYVAEISGGGGSTWYAPAVKGRATISRDNGQSTVRLQLNNLRAEDTGTYYCAKSADTWSYGAATIDAWGHGTEVIVSS
B7: anti-CNTN4 scFv-hCk S6 (scFv, part only; not given: linker and kappa constant region, not shown: a dimerising Fc or GST)
scFv, part: ALTQPSSVSANPGETVKITCSGGSGNYGWYQQKSPGSAPVTVIYNGNNRPSDIPSRFSGSGSGSTNTLAITGVQAEDEAVYFCGGYDGTIDAFGAGTTLTVLAVTLDESEGGLQTPGGALSLVCKASGFTFSSFNMFWVRQAPGKGLEYVAEISGGGGSTWYAPAVKGRATISRDNGQSTVRLQLNNLRAEDTGTYYCAKSADTWSYGAATIDAWGHGTEVIVSS
B8: anti-CNTN4 scFv-hCk S96 (scFv, part only; not given: linker and kappa constant region, V domains shown, not shown: another chain or arm of the molecule; a dimerising Fc or GST; small tags and cut ends)
VL: ALTQPSSVSANPGETVKITCSGSSGSYGYSWHQQKSPGSAPVTVIYESNKRPSNIPSRFSGSTSGSTSTLTITGVQADDEAVYFCGSADSSTTIAFGAGTTLTVL
VH: AVTLDESGGGLQTPGGTLSLVCKASGFTFSTYSMQWLRQAPGKGLEWVAGISNSGSSTVYGPAVKGRATISRDNGQSTVSLQLNNLRAEDTGTYYCAKSTYGGSWYAAYSIDEWGHGTEVIVSS
B9: anti-CNTN4 scFv-hCk S83 (scFv, part only; not given: linker and kappa constant region, not shown: a dimerising Fc or GST)
scFv, part: ALTQPSSVSANLGETVKITCSGGGGYSGSYYYGWYQQKSPAGAPDTVIYSNNQRPSNIPSRFSGSKSGSTGTLTITEDHAEDEAVYYCGSIDSSSNPGIFGAGTTLTVLAVTLDKSGGGLHTPGGALSLVCKASGFTFSRYIMQWVLQAPGKVLEWVASIRNGTTPKYGAAVKGRATISRDNGQSTVMLQLNSLTYDDTDAYYCDRGDDGDCICGGCAASIDIWCYATEVIVSS
B10: anti-CNTN4 IgG A35SF39 (antibody, V domains shown)
VH: AVTLDESGGGLHTPGGALSLVCKASGFTFSSYGMAWVRQAPGKGLEWVAGITSSGSSAGYGPAVKGRATISRDNGQSTVRLQLNNLRAEDTATYYCAKDGYIYSGADSDSIDAWGHGTEVIVSS
VL: ALTQPSSVSANLGGTVKITCSGGSGSYGWYQQKSPGSAPVTVIYNNNNRPSDIPSRFSGSTSGSTGTLTITGVRAEDEAVYFCGGYDTDSPIFGAGTTLTVL
notes: human IgG4 (S228P)
B11: anti-CNTN4 IgG A35SF90 (antibody, V domains shown)
VH: B10 VH
VL: ALTQPSSVSANLGGTVEITCSGSNNNNYGWYQQKTPGSAPVTLIYNNNQRPSDIPSRFSGSKSGSTGTLTITGVRAEDEAVYYCGGYDSSIYFDIFGAGTTLTVL
notes: human IgG4 (S228P)
B12: anti-CNTN4 IgG A35SF75 (antibody, V domains shown)
VH: B10 VH
VL: ALTQPSSVSANPGVTVKITCSGGGGSYGWYQQKAPGSAPVTLIYNNTNRPSDIPSRFSGSRSGSTNTLTITGVQAEDEAVYFCGGYDSNTDYVGFGAGTTLTVL
notes: human IgG4 (S228P)

Substitutions are numbered along the chain they refer to. Names and notes keep the numbering of the source.

The first assay addresses T1, mouse CNTN4-rabbit Fc. The experiment in a line: ELISA, plate coated with antigen-rabbit Fc, anti-human kappa-HRP.
For the molecule B1, the EC50 came to 3.64 nM.

The molecule B2 had an EC50 of 1.15 nM.

With B3, the EC50 came to 1.53 nM.

For the molecule B4, the EC50 stood at 2.07 nM.

Take B5: the EC50 was found to be 1.2 nM.

B6 registered an EC50 of 0.37 nM.

Regarding B7, the EC50 came out at 1.85 nM.

The target in the next assay is T2, human CNTN4-rabbit Fc. Described as above.
On to B1, for which the EC50 amounted to 8.34 nM.

Molecule B2 came in with an EC50 of 2.6 nM.

B3: the concentration for a half-maximal effect (EC50) worked out at 4.44 nM.

On to B4, for which the EC50 amounted to 1.12 nM.

For the molecule B5, the EC50 turned out to be 1.22 nM.

In turn, B6 displayed an EC50 of 0.55 nM.

B7 gave an EC50 of 0.37 nM.

A further assay concerns the target T3, human CNTN4 antigen expressed on the cell membrane of 293FT cells (human). In words: FACS, 293FT cells transfected with human CNTN4, 40 ug/mL, anti-hCk-PE. (In general: Flow cytometry measures light scatter and fluorescence of single cells or particles in a stream.)
As to B1, the Shift % was found to be 20.5%.

In the case of B2, the Shift % was found to be 15.4%.

Take B3: the Shift % amounted to 13.8%.

For B4, the Shift % was 5.63%.

Regarding B5, the Shift % came to 8.19%.

For the molecule B8, the Shift % worked out at 1.69%.

Turning to B6, the Shift % was 16%.

For B9, the Shift % is 5.27%.

Regarding B7, the Shift % is 14.7%.

The next assay addresses T1, mouse CNTN4-rabbit Fc. The experiment in a line: ELISA, plate coated with antigen-rabbit Fc, anti-human IgG Fc-HRP. Here is the method: (§1) An ELISA tests were performed on a total of 25 scFv-hCks and a total of 27 IgGs for which the expression was confirmed in Example 1.2. An ELISA plate was coated with 200 ng of antigens (human CNTN4-rabbit Fc or mouse CNTN4-rabbit Fc). 200 ng of a negative control (human antigen-rabbit Fc) for a tagging protein was used. For antibody binding, anti-CNTN4 scFv-hCk was serially diluted from a maximum of 1 μM to 0.001 nM by 1/10×each, and anti-CNTN4 IgG was serially diluted from a maximum of 10 nM to 0.00001 nM by 1/10×each, thereby binding to the antigen. Anti-human kappa-HRP or anti-human IgG Fc-HRP was used as the secondary antibody for antibody detection. Color was developed using ABTS, which is a color developing reagent, and the absorbance at 405 nm was measured.
(In an ELISA, binding on a coated surface is turned into a signal by an enzyme label.)
As for B10, a half-maximal response (EC50) required 0.01 nM.

Molecule B11 gave a concentration for a half-maximal effect (EC50) of 0.01 nM.

Consider B12, for which the response was half-maximal at 0.2 nM (EC50).

Another assay concerns the target T2, human CNTN4-rabbit Fc. The description is as above. Here is the method: as §1
Molecule B10 came in with an EC50 of 0.01 nM.

Regarding B11, a half-maximal effect (EC50) was put at 0.01 nM.

B12 gave an EC50 of 0.21 nM.

A further assay has as its target T4, human CNTN4 antigen expressed on the …. The experiment in a line: FACS, 293FT cells transfected with human CNTN4, 40 ug/mL, anti-hFc-PE.
As to B10, the Shift % is 80%.

Take B11: the Shift % turned out to be 82.8%.

B12: the Shift % is 84.8%.

One may read the EC50 as the concentration at which the effect is half-maximal.

The values above are taken from US20240182563A1 (GENOME, published 2024).
